Experimental data taken from patent publication US20110076279A1 (SCHERING, published 2011).
Where a chain is given by its changes, count along the chain named.

B1: XPA.10.072 scFv (scFv, part only; not given: linker, domain order, tags, V domains shown, not shown: another chain or arm of the molecule; large carriers; small tags and cut ends)
VH: RLQLVQSGAEVRKPGASVKVSCKASGYSFTGHYIHWARQAPGQGLEWMGWINPYSGGTNFPREFQGRVTMTRDTSVNTVYMELTRLTSDDTSVYYCARDHRIVGGLDYWGQGTLVTVSS
VL: QSVLTQPPSASGTPGQRVTISCSGSSSNLGSNFVYWYQQLPGTAPKLLIYRNHQRPSGVPDRFSGSKSGTSASLAISGLRSEDEADYYCASWDDSLRVVVFGGGTKLTVL
B2: XPA.10.072 scFv-Fc (Fc fusion, not shown: a dimerising Fc or GST; small tags and cut ends)
VH: B1 VH
VL: B1 VL
B3: XPA.10.064 scFv-Fc (Fc fusion, not shown: a dimerising Fc or GST; small tags and cut ends)
VH: B1 VH with R1E, L2V, A37V
VL: B1 VL with Q1S, S2Y, L29I, S31I, F33Y, H53D, S91T, R97S, V98G, L107V
B4: XPA.10.064 scFv (scFv, part only; not given: linker, domain order, tags, V domains shown, not shown: another chain or arm of the molecule; large carriers; small tags and cut ends)
VH: B1 VH with R1E, L2V, A37V
VL: B1 VL with Q1S, S2Y, L29I, S31I, F33Y, H53D, S91T, R97S, V98G, L107V
B5: XPA.10.072 IgG2 (antibody, V domains shown)
VH: B1 VH
VL: B1 VL
notes: Fully human antibody from an scFv phage library, converted to IgG2 (gamma-2 heavy chain constant region); also called XPA.072; VPA.10.072
B6: XPA.10.064 IgG2 (antibody, V domains shown)
VH: B1 VH with R1E, L2V, A37V
VL: B1 VL with Q1S, S2Y, L29I, S31I, F33Y, H53D, S91T, R97S, V98G, L107V
notes: Fully human antibody from an scFv phage library, converted to IgG2 (gamma-2 heavy chain constant region); also called VPA.10.064

How the values were obtained:
[1] = biological target: T1, human VEGF165 (hVEGF165) (human, UniProt P15692 207-395); assay: DELFIA competition, biotinylated hVEGF165 0.5 µg/ml plus periplasmic scFv on VEGF-R1 or VEGF-R2 coated plate
[2] = biological target: T1, human VEGF165 (hVEGF165); assay: cell-based or functional assay
[3] = biological target: T1, human VEGF165 (hVEGF165); assay: Biacore
[4] = biological target: T1, human VEGF165 (hVEGF165); assay: cell-based or functional assay; remark: listed apart in the source
[5] = biological target: T1, human VEGF165 (hVEGF165); assay: Biacore, IgG2 (summary table)
Protocol: Dilution and running buffer for these experiments was HBS-EP (Biacore) with 1:50 dilution of Chemiblocker® (Chemicon). […] Antibody concentrations were approximately 0.5 μg/ml. hVEGF₁₆₅ expressed from sf21 cells was injected over five minutes at 30 μl/minute using the Kinject feature with 15 minute dissociation over fc1 and 2. […] Regenerations were performed with two injections of 100 mM HCl at 50 μl/minutes for twelve seconds each. Data was processed in Scrubber2 and fit by a 1:1 Langmuir interaction model after double referencing of the control flow cell and blank injections.

[6] = biological target: T2, hVEGF121-G92A (human, UniProt P15692-9 27-147, G92A); assay: sandwich ELISA, antibody coated 5 ug/ml
T2 construct: Transiently expressed in CHO-K1 cells; culture supernatant used
T2 sequence (looked up): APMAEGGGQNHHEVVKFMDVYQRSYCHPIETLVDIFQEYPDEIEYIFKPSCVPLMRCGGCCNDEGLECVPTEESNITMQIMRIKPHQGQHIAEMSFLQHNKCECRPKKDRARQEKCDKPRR
Protocol: (§1) The plate was blocked with 30% ChemiBlock™ reagent (Millipore) in PBS for one hour at room temperature, and 30, 60, or 100 μl of CHO-K1 culture supernatant for each mutant, or 1 μg/ml of wild-type hVEGF₁₂₁, recombinant hVEGF₁₆₅, or recombinant mVEGF₁₆₅, was added to appropriate wells. After one hour of incubation, the plate was washed and incubated with a biotinylated goat polyclonal anti-VEGF antibody for one hour at room temperature. Detection was performed with HRP-conjugated streptavidin, followed by TMB chromogenic substrate (Calbiochem) using manufacturer protocol.

[7] = biological target: T1, human VEGF165 (hVEGF165); assay: sandwich ELISA, antibody coated 5 ug/ml
Protocol: as §1

[8] = biological target: T3, wild-type hVEGF121 (human, UniProt P15692-9 27-147); assay: sandwich ELISA, antibody coated 5 ug/ml
T3 construct: Isoform VEGF121 of P15692
T3 sequence (looked up): T2 sequence (looked up) with A92G
Protocol: as §1

[9] = biological target: T4, hVEGF121-M81A (human, UniProt P15692-9 27-147); assay: sandwich ELISA, antibody coated 5 ug/ml
T4 construct: Transiently expressed in CHO-K1 cells; culture supernatant used
T4 sequence (looked up): T2 sequence (looked up) with M81A, A92G
Protocol: as §1

[10] = biological target: T5, hVEGF121-G88S (human, UniProt P15692-9 27-147, G88S); assay: sandwich ELISA, antibody coated 5 ug/ml
T5 construct: Transiently expressed in CHO-K1 cells; culture supernatant used
T5 sequence (looked up): T2 sequence (looked up) with G88S, A92G
Protocol: as §1

[11] = biological target: T6, hVEGF121-Q89A (human, UniProt P15692-9 27-147, Q89A); assay: sandwich ELISA, antibody coated 5 ug/ml
T6 construct: Transiently expressed in CHO-K1 cells; culture supernatant used
T6 sequence (looked up): T2 sequence (looked up) with Q89A, A92G
Protocol: as §1

[12] = biological target: T7, murine VEGF165 (mVEGF165) (murine, UniProt Q00731-2 27-190); assay: sandwich ELISA, antibody coated 5 ug/ml; sandwich ELISA, Ab coated at 5 ug/ml, murine VEGF165 at 1 ug/ml; signal at background, i.e. no binding
T7 construct: also called rMu-VEGF165; recombinant mVEGF165
T7 sequence (looked up): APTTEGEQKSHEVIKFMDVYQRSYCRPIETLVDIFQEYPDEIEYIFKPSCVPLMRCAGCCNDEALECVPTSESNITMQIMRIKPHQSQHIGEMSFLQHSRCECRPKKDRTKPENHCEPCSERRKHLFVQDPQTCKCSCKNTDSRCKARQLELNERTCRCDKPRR
Protocol: as §1

Binder | percent inhibition of hVEGF165 binding to receptor [1] [%] | IC50 [2] [µg/mL] | off-rate relative to Bevacizumab [3] [fold] | Inhibition of HUVEC proliferation, HEK 293 hVEGF165, EC50 [4] [µg/mL] | Kd [5] [nM] | fold over background [6] [fold] | fold over background [7] [fold] | fold over background [8] [fold] | fold over background [9] [fold] | fold over background [10] [fold] | fold over background [11] [fold] | fold over background [12] [fold]
B1 | > 60 | – | – | – | – | – | – | – | – | – | – | –
B2 | – | > 1 | – | – | – | – | – | – | – | – | – | –
B3 | – | 0.41 | – | – | – | – | – | – | – | – | – | –
B4 | > 60 | – | – | – | – | – | – | – | – | – | – | –
B5 | – | – | ~2 | 0.68 | 1.7 | 30.5 | 29.2 | 31.8 | 13.4 | 1 | 3.3 | 1.1
B6 | – | – | ~2 | 0.66 | 1.5 | 22.8 | 23 | 29.1 | 9.5 | 0.9 | 3.5 | 0.7
